Tested on: La protein (Homo sapiens)
Assay: immunoprecipitation

Substance: EBER1 wild type
- binding signal (reference (wild type)): 1

From publication PMC2063832
